The values that follow come from PMC11328874 (2024).

For the assay, the target named is T1, FLAG-Eya3 (human), wild type, Q99504.
T1 chain: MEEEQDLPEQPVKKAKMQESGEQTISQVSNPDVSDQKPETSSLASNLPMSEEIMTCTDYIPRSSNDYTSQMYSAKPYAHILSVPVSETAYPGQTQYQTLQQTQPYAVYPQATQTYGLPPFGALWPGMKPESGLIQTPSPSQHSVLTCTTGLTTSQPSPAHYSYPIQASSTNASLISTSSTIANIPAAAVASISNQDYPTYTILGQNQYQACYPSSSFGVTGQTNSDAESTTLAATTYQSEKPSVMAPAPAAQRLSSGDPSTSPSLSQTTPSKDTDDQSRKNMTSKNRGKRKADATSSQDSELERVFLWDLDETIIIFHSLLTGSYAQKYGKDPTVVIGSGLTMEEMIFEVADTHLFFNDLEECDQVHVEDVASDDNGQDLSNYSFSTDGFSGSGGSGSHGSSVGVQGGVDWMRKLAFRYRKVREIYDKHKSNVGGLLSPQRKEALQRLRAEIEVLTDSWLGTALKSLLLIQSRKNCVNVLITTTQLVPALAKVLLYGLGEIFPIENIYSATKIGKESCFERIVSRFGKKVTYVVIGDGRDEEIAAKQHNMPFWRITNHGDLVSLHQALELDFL
Briefly: FLAG co-IP followed by Western blot, band quantification. The settings on record: chain shown with the change; cotransfected HEK cells; three biological replicates; parent: est. 1.0; read off a plot. A general note: In western blotting, separated proteins are transferred to a membrane and probed.

B1: HA-tagged B55α (HA-B55α), wild type, P63151 F84-L90/GG (protein)
chain: MAGAGGGNDIQWCFSQVKGAVDDDVAEADIISTVEFNHSGELLATGDKGGRVVIFQQEQENKIQSHSRGEYNVYSTFQSHEPEGGEIEEKINKIRWLPQKNAAQFLLSTNDKTIKLWKISERDKRPEGYNLKEEDGRYRDPTTVTTLRVPVFRPMDLMVEASPRRIFANAHTYHINSISINSDYETYLSADDLRINLWHLEITDRSFNIVDIKPANMEELTEVITAAEFHPNSCNTFVYSSSKGTIRLCDMRASALCDRHSKLFEEPEDPSNRSFFSEIISSISDVKFSHSGRYMMTRDYLSVKIWDLNMENRPVETYQVHEYLRSKLCSLYENDCIFDKFECCWNGSDSVVMTGSYNNFFRMFDRNTKRDITLEASRENNKPRTVLKPRKVCASGKRKKDEISVDSLDFNKKILHTAWHPKENIIAVATTNNLYIFQDKVN
Turning to B1, the ratio to parent was found to be 0.58.
